System: CDC6
Experiment: QPCR of CDC6 in transfected HEK293 cells
Assay type: cell-based, human
Conditions: 48 h, relative to U6.milacZ
Procedure: The expression of SMAD1, SMAD5 and CDC6 was measured by QPCR in HEK293 cells using TaqMan probes specific to each investigated gene. To do that, U6.milacZ (negative control), H1.mir-675, U6.mir-675-3p or U6.mir-675-5p expressing constructs were transfected into HEK293 cells, and total RNA was extracted 48h after transfection. As a result, U6.mir-675-3p reduced SMAD1 levels by an average of 32±6% (P<0.044, ANOVA, N=3) and SMAD5 levels by an average of 35±6% (P<0.0013, ANOVA, N=3). On the other hand, H1.mir-675 and U6.mir-675-5p repressed CDC6 levels by an average of 38±4% (P<0.0034, ANOVA, N=3) and 36±7% (P<0.0048, ANOVA, N=3), respectively. Results were reported as relative gene expression (ΔΔCq)±SEM of three replicates (N=3) relative to gene expression in cells transfected with U6.milacZ, with each QPCR assay performed in triplicate. All results were quantified using as reference gene the house keeping gene RPL13A.
Along with a previous study showing the beneficial effect of mir-675 on regeneration and differentiation of injured mouse skeletal muscles [Dey et al., Genes Dev. […] QPCR was used to measure the expression of SMAD1, SMAD5 and CDC6 in HEK293 cells using TaqMan probes specific to each investigated gene. […] All results were quantified using as reference gene the house keeping gene RPL13A. […]

B1: H1.mir-675: commercially available H1 promoter mir-675 expression plasmid (SBI Biosciences) (nucleic acid)
DNA: GAACGCTGACGTCATCAACCCGCTCCAAGGAATCGCGGGCCCAGTGTCACTAGGCGGGAACACCCAGCGCGCGTGCGCCCTGGCAGGAAGATGGCTGTGAGGGACAGGGGAGTGGCGCCCTGCAATATTTGCATGTCGCTATGTGTTCTGGGAAATCACCATAAACGTGAAATGTCTTTGGATTTGGGAATCTTATAAGTTCTGTATGAGACCACCCCCCAGGGTCTGGTGCGGAGAGGGCCCACAGTGGACTTGGTGACGCTGTATGCCCTCACCGCTCAGCCCCTGGGGAATTCTTCGATTCTGCTTTTTT
- repression of CDC6 levels: 38±4%

Reference: patent publication US20240093191A1, “COMPOSITIONS AND METHODS FOR TREATING DISEASE ASSOCIATED WITH DUX4 OVEREXPRESSION” (RESEARCH INSTITUTE AT NATIONWIDE CHILDREN'S HOSPITAL, priority 2021, published 2024)
